Reference: paper PMC4048323 (Nature medicine, 2014)

Biological target: T1, mouse Ebi3 subunit of recombinant IL-35, V5-His-tagged (mouse, UniProt O35228 19-228)
T1 sequence: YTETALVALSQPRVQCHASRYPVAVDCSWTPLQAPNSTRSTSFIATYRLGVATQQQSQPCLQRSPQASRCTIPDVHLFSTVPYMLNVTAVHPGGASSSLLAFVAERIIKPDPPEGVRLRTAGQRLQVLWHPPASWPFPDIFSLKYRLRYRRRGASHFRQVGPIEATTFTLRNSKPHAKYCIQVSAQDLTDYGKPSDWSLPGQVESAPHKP
Experiment: co-IP

B1: mouse IL-12p35 (p35) subunit of recombinant IL-35, Flag-tagged (natural protein)
chain: RVIPVSGPARCLSQSRNLLKTTDDMVKTAREKLKHYSCTAEDIDHEDITRDQTSTLKTCLPLELHKNESCLATRETSSTTRGSCLPPQKTSLMMTLCLGSIYEDLKMYQTEFQAINAALQNHNHQQIILDKGMLVAIDELMQSLNHNGETLRQKPPVGEADPYRVKMKLCILLHAFSTRVVTINRVMGYLSSA
B1: binds.
